Test results published in patent US20240018502A1.
Residue numbers refer to the chain shown, from its start. Names may count otherwise.

B1: MTSP-1 Q38H/I41S/D60bT/F60eS/Y60gW/F97D/F99L/C122S/G151H/Q175L/Q192D (enzyme)
chain: VVGGTDADEGEWPWQVSLHALGHGHSCGASLISPNWLVSAAHCYIDTRGSRWSDPTQWTAFLGLHDQSQRSAPGVQERRLKRIISHPFFNDDTLDYDIALLELEKPAEYSSMVRPISLPDASHVFPAGKAIWVTGWGHTQYGGTHALILQKGEIRVINQTTCENLLPQLITPRMMCVGFLSGGVDSCDGDSGGPLSSVEADGRIFQAGVVSWGDGCAQRNKPGVYTRLPLFRDWIKENTGV
B2: MTSP-1 Q38H/I41S/D60bT/F60eS/Y60gW/D96Y/ins97aV/F97E/T98G/F99L/C122S/G151H/Q175L/Q192D (enzyme)
chain: VVGGTDADEGEWPWQVSLHALGHGHSCGASLISPNWLVSAAHCYIDTRGSRWSDPTQWTAFLGLHDQSQRSAPGVQERRLKRIISHPFFNYEVGLDYDIALLELEKPAEYSSMVRPISLPDASHVFPAGKAIWVTGWGHTQYGGTHALILQKGEIRVINQTTCENLLPQLITPRMMCVGFLSGGVDSCDGDSGGPLSSVEADGRIFQAGVVSWGDGCAQRNKPGVYTRLPLFRDWIKENTGV
B3: MTSP-1 Q38H/I41S/D60bA/Y60gG/ins97aV/F97D/T98P/F99L/C122S/H143T/G151N/Q175L/Q192A (enzyme)
chain: B2 chain with T47A, S50F, W52G, Y91D, E92D, G94P, H139T, H146N, D189A
B4: MTSP-1 Q38H/I41S/D60bT/F60eH/Y60gF/ins97aV/F97D/T98P/F99L/C122S/H143R/G151N/Q175L/Q192S (enzyme)
chain: B2 chain with S50H, W52F, Y91D, E92D, G94P, H139R, H146N, D189S
B5: MTSP-1 Q38H/I41S/D60bS/F60eQ/Y60gF/ins97aV/F97D/T98P/F99L/C122S/H143R/G151N/Q175L/Q192T (enzyme)
chain: B2 chain with T47S, S50Q, W52F, Y91D, E92D, G94P, H139R, H146N, D189T
B6: MTSP-1 Q38H/I41S/D60bF/F60eT/ins97aV/F97D/T98P/F99L/C122S/H143Q/G151N/Q175L/Q192G (enzyme)
chain: B2 chain with T47F, S50T, W52Y, Y91D, E92D, G94P, H139Q, H146N, D189G
B7: MTSP-1 Q38H/I41S/D60bF/F60eQ/Y60gF/ins97aV/F97D/T98P/F99L/C122S/H143A/G151N/Q175L/Q192A (enzyme)
chain: B2 chain with T47F, S50Q, W52F, Y91D, E92D, G94P, H139A, H146N, D189A
B8: MTSP-1 protease domain Q38H/I41S/D60bT/F60eT/ins97aV/F97D/T98P/F99L/C122S/H143Q/G151Q/Q175L/Q192G (enzyme)
chain: B2 chain with S50T, W52Y, Y91D, E92D, G94P, H139Q, H146Q, D189G
B9: MTSP-1 protease domain Q38H/I41S/D60bQ/F60eQ/F97D/ins97aV/T98P/F99L/C122S/H143Q/G151Q/Q175L/Q192G (enzyme)
chain: B2 chain with T47Q, S50Q, W52Y, Y91D, E92D, G94P, H139Q, H146Q, D189G
B10: MTSP-1 protease domain Q38H/I41S/D60bS/F60eQ/ins97aV/F97D/T98P/F99L/C122S/H143A/G151N/Q175L/Q192G (enzyme)
chain: B2 chain with T47S, S50Q, W52Y, Y91D, E92D, G94P, H139A, H146N, D189G
B11: MTSP-1 protease domain Q38H/I41A/D60bV/F60eR/Y60gW/D96Q/F97E/ins97aD/T98S/F99L/C122S/G151N/Q175L/Q192R (enzyme)
chain: B2 chain with S26A, T47V, S50R, Y91Q, V93D, G94S, H146N, D189R
B12: MTSP-1 protease domain Q38H/I41S/D60bT/F60eS/Y60gW/D96F/F97D/ins97aE/T98S/F99L/C122S/G151H/Q175L/Q192A (enzyme)
chain: B2 chain with Y91F, E92D, V93E, G94S, D189A
B13: MTSP-1 protease domain Q38H/I41S/D60bT/F60eS/Y60gW/D96L/ins97aG/F97D/T98N/F99L/C122S/G151H/Q175L/Q192E (enzyme)
chain: B2 chain with Y91L, E92D, V93G, G94N, D189E
B14: MTSP-1 protease domain Q38H/I41S/D60bT/F60eS/Y60gW/D96K/ins97aV/F97G/T98P/F99L/C122S/G151H/Q175L/Q192D (enzyme)
chain: B2 chain with Y91K, E92G, G94P
B15: MTSP-1 protease domain Q38H/I41A/D60bV/F60eR/Y60gW/D96I/ins97aN/F97Y/T98G/F99L/C122S/G151H/Q175L/Q192D (enzyme)
chain: B2 chain with S26A, T47V, S50R, Y91I, E92Y, V93N
B16: MTSP-1 protease domain Q38H/I41A/D60bV/F60eR/Y60gW/D96I/F97N/T98G/F99L/C122S/G151H/Q175L/Q192D (enzyme)
chain: B1 chain with S26A, T47V, S50R, D91I, D92N, T93G
B17: MTSP-1 protease domain Q38H/I41S/D60bT/F60eS/Y60gW/F97D/F99L/C122S/G151N/Q175L/Q192D (enzyme)
chain: B1 chain with H145N
B18: MTSP-1 protease domain Q38H/I41S/D60bT/F60eS/Y60gW/D96Y/ins97aV/F97E/T98G/F99L/C122S/G151N/Q175L/Q192D (enzyme)
chain: B2 chain with H146N
B19: MTSP-1 protease domain Q38H/I41A/D60bV/F60eR/Y60gW/D96P/ins97aN/F97W/T98G/F99L/C122S/G151H/Q175L/Q192E (enzyme)
chain: B2 chain with S26A, T47V, S50R, Y91P, E92W, V93N, D189E
B20: MTSP-1 protease domain Q38H/I41A/D60bV/F60eR/Y60gW/D96P/ins97aN/F97W/T98G/F99L/C122S/G151N/Q175L/Q192D (enzyme)
chain: B2 chain with S26A, T47V, S50R, Y91P, E92W, V93N, H146N
B21: MTSP-1 protease domain Q38H/I41A/D60bV/F60eR/Y60gW/D96P/ins97aN/F97W/T98G/F99L/C122S/G151H/Q175L/Q192D (enzyme)
chain: B2 chain with S26A, T47V, S50R, Y91P, E92W, V93N
B22: MTSP-1 protease domain Q38H/I41A/D60bV/F60eR/Y60gW/F97D/F99L/C122S/G151H/Q175L/Q192D (enzyme)
chain: B1 chain with S26A, T47V, S50R
B23: MTSP-1 protease domain Q38H/I41S/D60bT/F60eS/Y60gW/D96I/F97N/T98G/F99L/C122S/G151N/Q175L/Q192D (enzyme)
chain: B1 chain with D91I, D92N, T93G, H145N
B24: MTSP-1 protease domain Q38H/I41A/D60bV/F60eR/Y60gW/F97D/F99L/C122S/G151N/Q175L/Q192D (enzyme)
chain: B1 chain with S26A, T47V, S50R, H145N
B25: MTSP-1 protease domain I41S/D60bT/F60eS/Y60gW/ins97aV/F97D/T98P/F99L/C122S/G151H/Q175L/Q192E (enzyme)
chain: B2 chain with H23Q, Y91D, E92D, G94P, D189E
B26: MTSP-1 protease domain Q38H/D60bT/F60eS/Y60gW/ins97aV/F97D/T98P/F99L/C122S/G151H/Q175L/Q192E (enzyme)
chain: B2 chain with S26I, Y91D, E92D, G94P, D189E
B27: MTSP-1 protease domain Q38H/I41S/F60eS/Y60gW/ins97aV/F97D/T98P/F99L/C122S/G151H/Q175L/Q192E (enzyme)
chain: B2 chain with T47D, Y91D, E92D, G94P, D189E
B28: MTSP-1 protease domain Q38H/I41S/D60bT/F60eS/Y60gW/ins97aV/T98P/F99L/C122S/G151H/Q175L/Q192E (enzyme)
chain: B2 chain with Y91D, E92F, G94P, D189E
B29: MTSP-1 protease domain Q38H/I41S/D60bT/F60eS/Y60gW/F97D/T98P/F99L/C122S/G151H/Q175L/Q192E (enzyme)
chain: B1 chain with T93P, D188E
B30: MTSP-1 protease domain Q38H/I41S/D60bT/F60eS/Y60gW/ins97aV/F97D/F99L/C122S/G151H/Q175L/Q192E (enzyme)
chain: B2 chain with Y91D, E92D, G94T, D189E
B31: MTSP-1 protease domain Q38H/I41S/D60bT/F60eS/Y60gW/ins97aV/F97D/T98P/C122S/G151H/Q175L/Q192E (enzyme)
chain: B2 chain with Y91D, E92D, G94P, L95F, D189E
B32: MTSP-1 protease domain with C122S (enzyme)
chain: B1 chain with H23Q, S26I, T47D, S50F, W52Y, D92F, L94F, H145G, L169Q, D188Q
B33: MTSP-1 protease domain Q38H/I41S/D60bT/F60eS/Y60gW/ins97aV/F97D/T98P/F99L/C122S/Q175L/Q192E (enzyme)
chain: B2 chain with Y91D, E92D, G94P, H146G, D189E
B34: MTSP-1 protease domain Q38H/I41S/D60bT/F60eS/Y60gW/F97D/ins97aV/T98P/F99L/C122S/G151H/Q192E (enzyme)
chain: B2 chain with Y91D, E92D, G94P, L170Q, D189E
B35: MTSP-1 protease domain Q38H/I41S/D60bT/F60eS/Y60gW/ins97aV/F97D/T98P/F99L/C122S/G151H/Q175L (enzyme)
chain: B2 chain with Y91D, E92D, G94P, D189Q
B36: MTSP-1 protease domain Q38H/I41S/D60bT/F60eS/Y60gW/F97D/ins97aA/T98P/F99L/C122S/G151H/Q175L/Q192E (enzyme)
chain: B2 chain with Y91D, E92D, V93A, G94P, D189E
B37: MTSP-1 protease domain Q38H/I41S/D60bT/Y60gW/ins97aV/F97D/T98P/F99L/C122S/G151H/Q175L/Q192E (enzyme)
chain: B2 chain with S50F, Y91D, E92D, G94P, D189E
B38: MTSP-1 protease domain Q38H/I41S/D60bT/F60eG/Y60gW/D96V/F97N/T98G/F99L/C122S/G151N/Q175L/Q192D (enzyme)
chain: B1 chain with S50G, D91V, D92N, T93G, H145N
B39: MTSP-1 protease domain Q38K/I41G/F60eG/Y60gW/D96P/F97N/T98G/F99L/C122S/G151N/Q175L/Q192D (enzyme)
chain: B1 chain with H23K, S26G, T47D, S50G, D91P, D92N, T93G, H145N
B40: MTSP-1 protease domain Q38Y/I41E/D60bS/F60eV/Y60gF/D96W/F97N/T98G/F99L/C122S/G151N/Q175L/Q192D (enzyme)
chain: B1 chain with H23Y, S26E, T47S, S50V, W52F, D91W, D92N, T93G, H145N
B41: MTSP-1 protease domain Q38H/I41S/D60bT/F60eG/D96Y/F97N/T98G/F99L/C122S/G151N/Q175L/Q192D (enzyme)
chain: B1 chain with S50G, W52Y, D91Y, D92N, T93G, H145N

Molecular target: plasma purified human complement protein C3 (human) (UniProt P01024)
Sequence (P01024 23-667, chain 1 of 2): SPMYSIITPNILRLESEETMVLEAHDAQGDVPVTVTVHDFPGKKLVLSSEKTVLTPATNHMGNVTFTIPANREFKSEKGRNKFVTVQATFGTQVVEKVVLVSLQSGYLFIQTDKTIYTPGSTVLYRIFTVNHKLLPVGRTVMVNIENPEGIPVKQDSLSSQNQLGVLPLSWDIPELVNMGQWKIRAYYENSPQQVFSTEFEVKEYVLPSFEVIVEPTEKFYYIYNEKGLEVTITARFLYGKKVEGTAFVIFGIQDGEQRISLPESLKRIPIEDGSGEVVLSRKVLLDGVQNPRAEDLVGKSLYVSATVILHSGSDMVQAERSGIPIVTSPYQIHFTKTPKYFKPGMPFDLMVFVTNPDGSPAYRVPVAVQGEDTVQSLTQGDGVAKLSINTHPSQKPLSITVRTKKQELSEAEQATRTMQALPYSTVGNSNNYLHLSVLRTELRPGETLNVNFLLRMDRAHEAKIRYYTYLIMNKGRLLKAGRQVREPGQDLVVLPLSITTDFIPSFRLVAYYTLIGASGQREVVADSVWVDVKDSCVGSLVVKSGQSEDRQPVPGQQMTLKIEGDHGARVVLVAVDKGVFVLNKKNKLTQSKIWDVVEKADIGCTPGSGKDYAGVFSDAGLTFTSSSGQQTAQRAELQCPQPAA
Sequence (P01024 672-1663, chain 2 of 2): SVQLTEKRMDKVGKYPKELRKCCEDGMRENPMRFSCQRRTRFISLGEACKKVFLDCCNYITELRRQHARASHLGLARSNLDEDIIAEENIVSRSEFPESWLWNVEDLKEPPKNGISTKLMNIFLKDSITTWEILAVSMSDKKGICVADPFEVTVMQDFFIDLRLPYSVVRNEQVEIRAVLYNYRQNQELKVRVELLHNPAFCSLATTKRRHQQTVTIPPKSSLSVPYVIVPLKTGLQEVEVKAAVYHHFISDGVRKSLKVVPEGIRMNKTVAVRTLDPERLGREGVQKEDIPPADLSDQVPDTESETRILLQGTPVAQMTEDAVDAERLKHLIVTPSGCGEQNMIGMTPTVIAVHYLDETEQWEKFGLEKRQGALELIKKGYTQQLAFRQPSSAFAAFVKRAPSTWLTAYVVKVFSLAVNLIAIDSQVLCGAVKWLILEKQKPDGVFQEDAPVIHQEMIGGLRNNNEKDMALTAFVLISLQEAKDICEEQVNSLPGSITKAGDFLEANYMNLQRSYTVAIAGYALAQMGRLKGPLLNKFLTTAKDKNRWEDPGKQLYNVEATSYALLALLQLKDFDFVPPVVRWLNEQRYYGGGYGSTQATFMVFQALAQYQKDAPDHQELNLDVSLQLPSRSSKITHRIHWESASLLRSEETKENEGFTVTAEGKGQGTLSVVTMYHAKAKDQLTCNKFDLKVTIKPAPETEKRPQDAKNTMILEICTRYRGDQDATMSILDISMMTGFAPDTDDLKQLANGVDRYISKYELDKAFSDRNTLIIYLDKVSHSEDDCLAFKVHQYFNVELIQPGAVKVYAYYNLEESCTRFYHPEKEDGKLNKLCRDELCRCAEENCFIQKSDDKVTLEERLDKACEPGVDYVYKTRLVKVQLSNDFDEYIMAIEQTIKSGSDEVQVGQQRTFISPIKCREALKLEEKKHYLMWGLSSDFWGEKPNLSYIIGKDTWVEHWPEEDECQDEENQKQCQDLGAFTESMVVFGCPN
Assay: cell-based or functional assay

Row | Binder | EC50 of hC3 cleavage | EC50 hC3 cleavage
1 | B1 | 5.53 nM | –
2 | B2 | 4.62 nM | –
3 | B3 | 4.22 nM | –
4 | B4 | 21 nM | –
5 | B5 | 12.9 nM | –
6 | B6 | 3.07 nM | –
7 | B7 | 4.58 nM | –
8 | B8 | – | 6.69 nM
9 | B9 | – | 8.5 nM
10 | B10 | – | 26.3 nM
11 | B11 | – | 4.6 nM
12 | B12 | – | 1.17 nM
13 | B13 | – | 1.59 nM
14 | B14 | – | 6.86 nM
15 | B15 | – | 1.57 nM
16 | B16 | – | 2.52 nM
17 | B17 | – | 4.9 nM
18 | B18 | – | 4.13 nM
19 | B19 | – | 1.11 nM
20 | B20 | – | 2.54 nM
21 | B21 | – | 1.83 nM

Row | Binder | EC50 of hC3 cleavage | EC50 hC3 cleavage
22 | B22 | – | 3.72 nM
23 | B23 | – | 3.04 nM
24 | B24 | – | 7.04 nM
25 | B25 | – | 6.33 nM
26 | B26 | – | 66.7 nM
27 | B27 | – | 3.83 nM
28 | B28 | – | 3.19 nM
29 | B29 | – | 25.7 nM
30 | B30 | – | 7.82 nM
31 | B31 | – | 11.5 nM
32 | B32 | 13.9 nM | –
33 | B33 | – | 4.86 nM
34 | B34 | – | 11.9 nM
35 | B35 | – | 1.31 nM
36 | B36 | – | 4.07 nM
37 | B37 | – | 10.4 nM
38 | B38 | – | 4.47 nM
39 | B39 | – | 62.7 nM
40 | B40 | – | 227 nM
41 | B41 | – | 9.56 nM
